The source of these data is FireProtDB (doi:10.1021/bi992119u).

For the data set the following is noted: Pseudomonas putida; pH 7; 25 °C; Urea; CD; Sodium phosphate 25 mM; reversible: yes; whole UniProt chain shown.

B1: Steroid Delta-isomerase wild type, P07445 (protein)
chain: MNLPTAQEVQGLMARYIELVDVGDIEAIVQMYADDATVEDPFGQPPIHGREQIAAFYRQGLGGGKVRACLTGPVRASHNGCGAMPFRVEMVWNGQPCALDVIDVMRFDEHGRIQTMQAYWSEVNLSVREPQ
In the case of B1, the denaturant m value was 3.39 kcal/mol/M, the “denaturant midpoint (higher = more stable)” value worked out at 5.22 M and the unfolding free energy was 102 kJ/mol.
